# Test results: patent US20100298612
# T1: Mycobacterium sp. (strain JLS) carboxylic acid reductase (CAR)
# T1 chain: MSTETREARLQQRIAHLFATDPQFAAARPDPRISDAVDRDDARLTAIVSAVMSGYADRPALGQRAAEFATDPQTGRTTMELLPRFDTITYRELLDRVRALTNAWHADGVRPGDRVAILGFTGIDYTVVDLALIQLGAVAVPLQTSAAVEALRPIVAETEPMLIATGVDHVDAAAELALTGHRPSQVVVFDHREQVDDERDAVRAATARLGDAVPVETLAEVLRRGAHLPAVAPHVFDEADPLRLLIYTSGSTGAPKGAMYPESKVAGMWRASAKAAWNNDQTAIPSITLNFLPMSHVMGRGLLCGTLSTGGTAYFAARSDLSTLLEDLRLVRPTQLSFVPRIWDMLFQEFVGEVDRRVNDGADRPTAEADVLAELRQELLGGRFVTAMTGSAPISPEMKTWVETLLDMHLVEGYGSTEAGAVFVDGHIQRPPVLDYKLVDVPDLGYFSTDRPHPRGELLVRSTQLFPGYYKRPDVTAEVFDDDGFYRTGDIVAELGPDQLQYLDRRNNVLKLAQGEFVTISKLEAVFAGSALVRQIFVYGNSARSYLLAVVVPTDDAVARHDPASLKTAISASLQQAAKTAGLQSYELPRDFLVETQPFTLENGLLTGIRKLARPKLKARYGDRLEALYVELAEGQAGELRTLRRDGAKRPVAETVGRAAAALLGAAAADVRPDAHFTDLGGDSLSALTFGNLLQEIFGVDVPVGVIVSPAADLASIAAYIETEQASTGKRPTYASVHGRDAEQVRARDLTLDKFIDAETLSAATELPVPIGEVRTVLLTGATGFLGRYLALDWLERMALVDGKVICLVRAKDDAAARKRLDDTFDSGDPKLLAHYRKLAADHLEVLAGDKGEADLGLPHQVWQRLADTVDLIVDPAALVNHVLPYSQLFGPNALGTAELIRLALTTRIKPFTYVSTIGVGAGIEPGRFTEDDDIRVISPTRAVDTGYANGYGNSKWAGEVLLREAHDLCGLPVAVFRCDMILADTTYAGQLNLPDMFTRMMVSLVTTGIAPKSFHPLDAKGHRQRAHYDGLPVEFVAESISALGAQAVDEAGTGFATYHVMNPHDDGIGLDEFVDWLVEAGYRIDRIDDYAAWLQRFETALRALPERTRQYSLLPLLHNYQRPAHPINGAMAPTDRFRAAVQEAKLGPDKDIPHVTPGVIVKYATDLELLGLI
# T2: Nocardia NRRL5646 carboxylic acid reductase (CAR)
# T2 chain: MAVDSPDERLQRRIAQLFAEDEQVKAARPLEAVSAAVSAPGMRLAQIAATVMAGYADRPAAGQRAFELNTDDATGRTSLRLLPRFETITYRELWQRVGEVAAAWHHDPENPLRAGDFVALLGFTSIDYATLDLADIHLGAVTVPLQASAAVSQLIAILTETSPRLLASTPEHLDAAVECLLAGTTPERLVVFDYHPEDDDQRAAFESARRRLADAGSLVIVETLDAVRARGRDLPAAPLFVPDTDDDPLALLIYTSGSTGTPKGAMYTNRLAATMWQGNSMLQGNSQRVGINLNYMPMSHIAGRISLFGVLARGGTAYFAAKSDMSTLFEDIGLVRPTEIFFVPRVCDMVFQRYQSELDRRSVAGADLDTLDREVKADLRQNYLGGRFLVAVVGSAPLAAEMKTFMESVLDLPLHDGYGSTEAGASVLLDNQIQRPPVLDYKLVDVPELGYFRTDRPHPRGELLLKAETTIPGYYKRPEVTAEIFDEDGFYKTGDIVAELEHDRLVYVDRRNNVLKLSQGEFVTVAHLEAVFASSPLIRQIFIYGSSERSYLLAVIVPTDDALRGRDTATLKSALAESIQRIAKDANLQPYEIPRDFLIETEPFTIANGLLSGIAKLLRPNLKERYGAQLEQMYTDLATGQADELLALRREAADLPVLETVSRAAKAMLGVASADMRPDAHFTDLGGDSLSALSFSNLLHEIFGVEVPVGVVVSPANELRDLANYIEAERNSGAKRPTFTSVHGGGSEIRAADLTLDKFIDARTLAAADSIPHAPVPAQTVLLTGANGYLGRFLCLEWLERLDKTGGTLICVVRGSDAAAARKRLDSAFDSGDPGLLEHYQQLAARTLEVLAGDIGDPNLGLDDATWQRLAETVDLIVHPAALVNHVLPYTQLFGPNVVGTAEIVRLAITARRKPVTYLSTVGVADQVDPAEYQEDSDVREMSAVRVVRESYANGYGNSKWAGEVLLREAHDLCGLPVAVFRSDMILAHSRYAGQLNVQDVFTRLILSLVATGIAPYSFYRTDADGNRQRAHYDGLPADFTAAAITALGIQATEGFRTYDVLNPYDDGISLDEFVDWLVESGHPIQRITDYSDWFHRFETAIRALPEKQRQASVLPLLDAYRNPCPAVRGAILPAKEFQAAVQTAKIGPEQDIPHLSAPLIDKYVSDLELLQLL
# B1: Nocardia NRRL 5646 phosphopantetheinyl transferase (PPTase) (protein)
# chain: MIETILPAGVESAELLEYPEDLKAHPAEEHLIAKSVEKRRRDFIGARHCARLALAELGEPPVAIGKGERGAPIWPRGVVGSLTHCDGYRAAAVAHKMRFRSIGIDAEPHATLPEGVLDSVSLPPEREWLKTTDSALHLDRLLFCAKEATYKAWWPLTARWLGFEEAHITFEIEDGSADSGNGTFHSELLVPGQTNDGGTPLLSFDGRWLIADGFILTAIAYA
# How the values were obtained:
# [1] = target: T1, Mycobacterium sp. (strain JLS) …
# [2] = target: T2, Nocardia NRRL5646 carboxylic acid …
protein,measurement,setting,value
B1,"CAR activity (in vitro conversion of hexadecanoic acid to 1-hexadecanol; Y. lipolytica CAR lysate pre-incubated with E. coli Nocardia PPTase lysate), fold improvement",[1],by 9-20 times
same,"CAR activity (in vitro conversion of hexadecanoic acid to 1-hexadecanol; Y. lipolytica CAR lysate pre-incubated with E. coli Nocardia PPTase lysate), fold improvement",[2],by 3-5 times
